{"source": "patent US20230248820A1", "target": "HCMV pentameric complex gH/gL/pUL128/pUL130/pUL131A (Pentamer), wild type, Merlin strain (HCMV Merlin strain) (UniProt Q6SW67)", "assay": "method not stated", "data": [{"substance": "8I21 with HCDR3 Trp105 mutated to alanine (antibody)", "values": [{"measurement": "fold decrease in binding affinity against 8I21 without the mutation", "result": "> 150", "unit": "fold"}]}]}
